This passage reports Kd, koff and kon results from paper PMC7102599 (Cell, 2020).

For the assay, the target named is human angiotensin-converting enzyme 2 ectodomain (ACE2, residues 1-614) (human, UniProt Q9BYF1 18-614). Put plainly: BLI. Background: Biolayer interferometry detects binding as a change in optical thickness at a sensor tip.

Where “and” joins values, the source holds several entries; their conditions need not be identical. Equal entries are not always repeated.

human angiotensin-converting enzyme 2 ectodomain (ACE2, residues 1-614), sequence (Q9BYF1 18-614): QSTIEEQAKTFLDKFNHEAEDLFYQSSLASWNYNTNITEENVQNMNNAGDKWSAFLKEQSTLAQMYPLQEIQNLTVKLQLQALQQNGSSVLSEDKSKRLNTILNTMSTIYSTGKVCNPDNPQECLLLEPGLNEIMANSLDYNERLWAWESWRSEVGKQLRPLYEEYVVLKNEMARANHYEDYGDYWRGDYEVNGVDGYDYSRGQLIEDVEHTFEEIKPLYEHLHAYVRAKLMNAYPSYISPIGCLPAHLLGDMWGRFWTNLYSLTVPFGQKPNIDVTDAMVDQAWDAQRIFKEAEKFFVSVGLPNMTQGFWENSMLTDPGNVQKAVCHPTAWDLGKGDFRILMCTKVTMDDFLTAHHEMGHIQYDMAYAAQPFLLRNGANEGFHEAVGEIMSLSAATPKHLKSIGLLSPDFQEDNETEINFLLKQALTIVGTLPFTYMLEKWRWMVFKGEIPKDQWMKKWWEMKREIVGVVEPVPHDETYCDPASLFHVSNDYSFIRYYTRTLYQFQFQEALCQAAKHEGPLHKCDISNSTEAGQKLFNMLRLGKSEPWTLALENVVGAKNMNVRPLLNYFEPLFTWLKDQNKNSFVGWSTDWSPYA

B1: SARS-CoV S domain B (S^B), residues 306-575 (domain or fragment)
chain: not shown
On to B1, for which the Kd amounted to 5 ± 0.1 nM; the off-rate (koff) was 0.00087 s⁻¹ and 0.00071 s⁻¹; the kon is 170000 M⁻¹ s⁻¹.

For orientation: Kd means the concentration at which binding is half-saturated. Low readings indicate a tighter complex, high ones a looser complex. As a reminder, the koff is the rate constant with which the complex falls apart. Usually kon stands for the second-order rate constant of association. A higher kon goes with faster complex formation.
